Patent US7888089B2, “eNOS mutations useful for gene therapy and therapeutic screening” (Yale University, priority 1999, dated 2011)
“Also recorded” adds a separate entry of the source. Where two headings read alike, the source gives them in different places.

What was measured:
[1] = tested on: eNOS; assay: Hemoglobin capture assay of NO production by purified eNOS; type: biochemical, bovine; settings: for Kcat (substrate Arginine, Hemoglobin capture): rate of NO production vs L-arginine, optimal conditions
Description: Assay for NOS Activity—NO production was measured by the hemoglobin capture assay as described (Kelm et al., 1988). Briefly, the reaction mixture contained eNOS (0.5-2.5 μg), oxyhemoglobin (8 μM), L-arginine (100 μM), BH4 (5 μM), CaCl2 (120 μM), calmodulin (120-200 nM), and NADPH (100 μM) in HEPES buffer (50 mM), pH 7.4. […] Under these conditions, free calcium was calculated using the WinMAXC program, version
NOS activity was monitored for linearity over 2 min at 401 nm, and NO production was calculated based on the change of absorbance using the extinction coefficient of 60 mM^−1 cm^−1. All reactions were carried out at 23° C., and each data point represents 3-8 observations. The extinction coefficient of 0.0033 μM^−1 cm^−1 at 276 nm was used for determination of calmodulin concentration. […] When the inactivation of eNOS was determined by the addition of EGTA (200-800 μM) to the reaction mixture, chelator was added 1 min after initiation of the reaction by NADPH. Identical conditions were used when NADPH-cytochrome c reductase activity was examined. These reactions contained CaM (120 nM) and CaCl2 (200 μM) in a 0.5-ml volume with eNOS (0.5 μg).

[2] = tested on: eNOS; assay: Conversion of L-arginine to L-citrulline by purified eNOS; type: biochemical, bovine; settings: for Kcat (CaM, L-Citrulline): CaM activation of NOS activity
Description: The conversion of L-arginine to L-citrulline was assayed as described previously by Bredt et al. (1990). Briefly, eNOS (0.25-2 μg) was incubated for 3-10 min at 23° C. in the following reaction mixture: 3 pmol of L-[3H]arginine (55 Ci/mmol), 10-300 μM arginine, 1 mM NADPH, 120-200 nM calmodulin, 2 mM CaCl2, and 30 μM BH4 in a final reaction volume of 50-100 μl. The reaction was terminated by the addition of 0.5 ml of 20 mM HEPES, pH 5.5, containing 2 mM EGTA and EDTA. The reaction mixture was placed over Dowex AG50WX8, and the flow-through was counted on a Packard 1500 liquid scintillation analyzer.

[3] = tested on: cytochrome c; assay: NADPH-cytochrome c reductase activity of purified eNOS; type: biochemical; settings: for Kcat (CaM, Cytochrome c): CaM activation of cytochrome c reduction; for EC50: cytochrome c reduction; for Km: Km for NADPH; for Kcat − CaM (NADPH, Cytochrome c) / Kcat + CaM (NADPH, Cytochrome c): NADPH dependence
Description: Assays for Reductase Activity—NADPH-cytochrome c reductase activity and 2,6-dichlorophenolindophenol (DCIP) reduction were measured as a change in absorbance at 550 nm as described previously by Martasek et al. (1999) and Masters et al. (1967) using an extinction coefficient of 0.021 μM^−1 cm^−1 for both cytochrome c and DCIP. Briefly, a reaction mixture (1 ml) contained either cytochrome c (90 μM); DCIP (36 μM), HEPES buffer (50 mM) at pH 7.6, NaCl (250 mM), NADPH (100 μM), calmodulin (120 nM), and CaCl2 (200 μM); or other substances as indicated. The reaction was monitored for 60 s (at 23° C.) after the addition of eNOS. When inactivation of reductase activity was determined by the addition of EGTA (200-800 μM), chelator was added 1 min after initiation of the reaction and monitored for an additional 1 min. The reaction contained HEPES buffer (50 mM) at pH 7.6, CaM (120 nM), and CaCl2 (200 μM) and was initiated with NADPH (100 μM). No NaCl was added in experiments that examined EGTA inactivation of eNOS to mimic the conditions used in the hemoglobin capture experiments. […] Determination of the calcium EC50 for eNOS was performed as described above for the hemoglobin capture assay.

[4] = tested on: eNOS; assay: NOS activity (3H-L-arginine to 3H-L-citrulline) in COS cell lysates; type: biochemical, bovine; settings: COS cells transfected with eNOS only, n=3
Description: NOS activity assays: The conversion of ^3H-L-arginine to ^3H-L-citrulline was used to determine NOS activity in COS cell or endothelial cell lysates as previously described by Garcia-Cardena et al. (1998).

[5] = tested on: Akt; assay: In vitro kinase reaction with Akt immunoprecipitated from COS cells; type: biochemical; settings: HA-Akt immunoprecipitate, n=3

EC50 ([1]; EC50 for free calcium, NO production, 250 nM CaM, read-out: EC50 (Ca2+, Hemoglobin capture, 100 mM KCl)): 310 nM
EC50 ([2]; EC50 for CaM, NOS activity): 8 nM
EC50 ([3]; EC50 for CaM, listed as wild type, read-out: EC50 (CaM, Cytochrome c)): 21 nM
EC50 ([3]; EC50 for CaM, read-out: EC50 (CaM, Cytochrome c)): 13 nM
EC50 ([3]; EC50 for free calcium, read-out: EC50 (Ca2+, Cytochrome c, 100 mM KCl)): 290 nM
cytochrome c reduction, first value of pair (with superoxide dismutase) ([3]; absence of CaM): 86 ± 6 min⁻¹
cytochrome c reduction, second value of pair (without superoxide dismutase) ([3]; absence of CaM): 95 ± 8 min⁻¹
cytochrome c reduction with superoxide dismutase ([3]; presence of CaM): 610 ± 51 min⁻¹
cytochrome c reduction without superoxide dismutase ([3]; presence of CaM): 866 ± 8 min⁻¹
relative decrease in cytochrome c activity in the presence of superoxide dismutase ([3]; presence of CaM): 30%
CaM-stimulated cytochrome c reduction ([3]; presence of CaM, n=3-5): 749 ± 35 min⁻¹
level of stimulation of cytochrome c reduction by CaM ([3]; with vs without CaM): 8 fold
B1: Wild type: Wild type bovine endothelial nitric oxide synthase (eNOS) (protein, UniProt P29473 2-1205, looked up)
Nitric oxide synthase 3: GNLKSVGQEPGPPCGLGLGLGLGLCGKQGPASPAPEPSRAPAPATPHAPDHSPAPNSPTLTRPPEGPKFPRVKNWELGSITYDTLCAQSQQDGPCTPRCCLGSLVLPRKLQTRPSPGPPPAEQLLSQARDFINQYYSSIKRSGSQAHEERLQEVEAEVASTGTYHLRESELVFGAKQAWRNAPRCVGRIQWGKLQVFDARDCSSAQEMFTYICNHIKYATNRGNLRSAITVFPQRAPGRGDFRIWNSQLVRYAGYRQQDGSVRGDPANVEITELCIQHGWTPGNGRFDVLPLLLQAPDEAPELFVLPPELVLEVPLEHPTLEWFAALGLRWYALPAVSNMLLEIGGLEFSAAPFSGWYMSTEIGTRNLCDPHRYNILEDVAVCMDLDTRTTSSLWKDKAAVEINLAVLHSFQLAKVTIVDHHAATVSFMKHLDNEQKARGGCPADWAWIVPPISGSLTPVFHQEMVNYILSPAFRYQPDPWKGSATKGAGITRKKTFKEVANAVKISASLMGTLMAKRVKATILYASETGRAQSYAQQLGRLFRKAFDPRVLCMDEYDVVSLEHEALVLVVTSTFGNGDPPENGESFAAALMEMSGPYNSSPRPEQHKSYKIRFNSVSCSDPLVSSWRRKRKESSNTDSAGALGTLRFCVFGLGSRAYPHFCAFARAVDTRLEELGGERLLQLGQGDELCGQEEAFRGWAKAAFQASCETFCVGEEAKAAAQDIFSPKRSWKRQRYRLSTQAEGLQLLPGLIHVHRRKMFQATVLSVENLQSSKSTRATILVRLDTAGQEGLQYQPGDHIGICPPNRPGLVEALLSRVEDPPPPTESVAVEQLEKGSPGGPPPSWVRDPRLPPCTLRQALTFFLDITSPPSPRLLRLLSTLAEEPSEQQELETLSQDPRRYEEWKWFRCPTLLEVLEQFPSVALPAPLLLTQLPLLQPRYYSVSSAPNAHPGEVHLTVAVLAYRTQDGLGPLHYGVCSTWLSQLKTGDPVPCFIRGAPSFRLPPDPYVPCILVGPGTGIAPFRGFWQERLHDIESKGLQPAPMTLVFGCRCSQLDHLYRDEVQDAQERGVFGRVLTAFSREPDSPKTYVQDILRTELAAEVHRVLCLERGHMFVCGDVTMATSVLQTVQRILATEGDMELDEAGDVIGVLRDQQRYHEDIFGLTLRTQEVTSRIRTQSFSLQERHLRGAVPWAFDPPGPDTPGP
NO production after calcium chelation with EGTA ([1]; 600 μM EGTA, 200 μM calcium, listed as wild type eNOS): no activity was detected; also recorded: no detectable activity
Km ([1]; Km for L-arginine, read-out: Km (substrate Arginine, Hemoglobin capture)): 1.8 µM
Km ([1]; Km for NADPH, in presence of CaM, read-out: Km (NADPH, Hemoglobin capture)): 8 µM
Kcat (NADPH, Hemoglobin capture) ([1]; NADPH dependence, in presence of CaM): 0.283 ± 0.017 s⁻¹
Kcat (Ca2+, Hemoglobin capture, 100 mM KCl) ([1]; calcium activation, 250 nM CaM): 0.967 ± 0.017 s⁻¹
maximal turnover rate, FIG. 8C ([1]; calcium-dependent NO production): 58 min1
maximal turnover rate, FIG. 8A ([1]; calmodulin-dependent hemoglobin capture): 22 min⁻¹
Kcat (substrate Arginine, Hemoglobin capture) [1]: 0.45 ± 0.017 s⁻¹
Kcat (substrate Arginine, Hemoglobin capture) ([1]; listed as wild type): 0.45 ± 0.017 s⁻¹
Kcat (CaM, L-Citrulline) [2]: 0.367 ± 0.033 s⁻¹
Kcat (CaM, L-Citrulline) ([2]; listed as wild type): 0.367 s⁻¹
Kcat (CaM, Cytochrome c) [3]: 10.3 ± 1.3 s⁻¹
Kcat (CaM, Cytochrome c) ([3]; listed as wild type eNOS): 10.3 s⁻¹
Km ([3]; absence of CaM): 0.4 µM
Km ([3]; presence of CaM): 0.75 µM
Kcat − CaM (NADPH, Cytochrome c) ([3]; absence of CaM): 1.17 ± 0.083 s⁻¹
Kcat − CaM (NADPH, Cytochrome c) ([3]; absence of CaM, listed as wild type eNOS): 1.17 s⁻¹
Kcat + CaM (NADPH, Cytochrome c) ([3]; presence of CaM): 7.67 ± 0.3 s⁻¹
Kcat + CaM (NADPH, Cytochrome c) ([3]; presence of CaM, listed as wild type eNOS): 7.67 s⁻¹
Kcat (Ca2+, Cytochrome c, 100 mM KCl) ([3]; calcium activation): 31.82 ± 0.55 s⁻¹
maximal turnover rate, FIG. 8D ([3]; calcium-dependent cytochrome c reduction): 1930 min⁻¹
maximal turnover rate, FIG. 8B ([3]; calmodulin-dependent cytochrome c reduction): 620 min1
reductase activity after calcium chelation with EGTA ([3]; highest concentration of EGTA): residual reductase activity was found
NOS activity in lysates [4]: 85.3±27.0 pmol L-citrulline generated/mg protein
phosphorylation of substrate by active Akt [5]: 115.4±3.8 pmol of ATP/nmol substrate
